# Tests used:
# Format in all cases: cell-based, human
# [1] = tested on: 293; test: Apoptosis by FACS, non-lymphoid tumor cell lines; conditions: Apo-2 ligand 3 μg/ml, 24 hours, control 12.3
# Experimental: (§1) The effects of the Apo-2 ligand on the 9D cells, as well as on Raji cells (human Burkitt's lymphoma B cell line, ATCC CCL 86) and Jurkat cells (human acute T cell leukemia cell line, ATCC TIB 152) were further analyzed by FACS. The FACS analysis was conducted, using established criteria for apoptotic cell death, namely, the relation of fluorescence staining of the cells with two markers: (a) propidium iodide (“PI”) dye, which stains apoptotic but not live cells, and (b) a fluorescent derivative of the protein, annexin V, which binds to the exposed phosphatidylserine found on the surface of apoptotic cells, but not on live cells [Darzynkiewicz et al., Methods in Cell Biol., 41:15-38 (1994); Fadok et al., J. Immunol., 148:2207-2216 (1992); Koopman et al., Blood, 84:1415-1420 (1994)].
# (§2) The 9D cells (FIG. 2B), Raji cells (FIG. 2C), and Jurkat cells (FIG. 2D) were incubated (1×10^6 cells/well) for 24 hours with a media control (left panels), Apo-2 ligand (3 μg/ml, prepared as described in Example 3) (center panels), or anti-Apo-1 ligand antibody, CH11 (1 μg/ml) (right panels). The cells were then washed, stained with PI and with fluorescein thiocyanate (FITC)-conjugatedannexin V (purchased from Brand Applications) and analyzed by flow cytometry. Cells negative for both PI and annexin V staining (quadrant 3) represent live cells; PI-negative, annexin V-positive staining cells (quadrant 4) represent early apoptotic cells; PI-positive, annexin V-positive staining cells (quadrant 2) represent primarily cells in late stages of apoptosis.
# (§3) The effect of Apo-2 ligand on human non-lymphoid tumor cell lines was examined using the following cell lines: HeLa (derived from human cervical carcinoma, ATCC CCL 22); ME-180 (derived from human cervical carcinoma, ATCC HTB 33); MCF7 (derived from human breast carcinoma, ATCC HTB 22); U-937 (derived from human hystiocytic lymphoma, ATCC CRL 1593); A549 (derived from human lung carcinoma, ATCC CCL 185); and 293 (derived from an adenovirus-transformed human embryonic kidney cells, ATCC CCL 1573).
# (§4) In the assay, 1×10^6 cells of each cell line were incubated for 24 hours with a media control, Apo-2 ligand (3 μg/ml, prepared as described in Example 3), or anti-Apo-1 monoclonal antibody, CH 11 (1 μg/m1). Following the incubation, apoptosis was measured by FACS analysis, as described in Example 4.
# [2] = tested on: A549; test: Apoptosis by FACS, non-lymphoid tumor cell lines; conditions: Apo-2 ligand 3 μg/ml, 24 hours, control 16.5
# Experimental: as §1, §2, §3, §4
# [3] = tested on: HeLa; test: Apoptosis by FACS, non-lymphoid tumor cell lines; conditions: Apo-2 ligand 3 μg/ml, 24 hours, control 5.3
# Experimental: as §1, §2, §3, §4
# [4] = tested on: MCF7; test: Apoptosis by FACS, non-lymphoid tumor cell lines; conditions: Apo-2 ligand 3 μg/ml, 24 hours, control 39.9
# Experimental: as §1, §2, §3, §4
# [5] = tested on: ME-180; test: Apoptosis by FACS, non-lymphoid tumor cell lines; conditions: Apo-2 ligand 3 μg/ml, 24 hours, control 8.6
# Experimental: as §1, §2, §3, §4
# [6] = tested on: U-937; test: Apoptosis by FACS, non-lymphoid tumor cell lines; conditions: Apo-2 ligand 3 μg/ml, 24 hours, control 3.6
# Experimental: as §1, §2, §3, §4
# [7] = tested on: T lymphocytes; test: Apoptosis by FACS in peripheral blood T cells; conditions: Apo-2 ligand 3 μg/ml, 3 days, mean ±SE
# Experimental: Peripheral blood mononuclear cells (“PBMC&”) were isolated from the blood of human donors by Ficoll density gradient centrifugation using Lymphocyte Separation Medium (LSM®, Organon Teknika). An isolated population of T cells was prepared from the PBMC by removal of B cells through surface Ig binding to an anti-Ig column and removal of monocytes through Fc receptor binding to an Ig column (R & D Systems). An isolated population of B cells was prepared from the PBMC by complement-mediatedelimination of T cells reacted with the anti-CD3 antibody produced by the OKT3 myeloma (ATCC, CRL 8001) and of monocytes reacted with a monocyte-specific antibody produced by the 4F2C13 hybridoma (ATCC, HB 22). Additional monocyte removal was accomplished by adherence to plastic.
# The freshly isolated peripheral blood B or T cells (1×10^6 cells/well) were cultured for 3 days in the presence of a media control or Apo-2 ligand (3 μg/ml, prepared as described in Example 3). For activation, B cells were treated simultaneously with lipopolysaccharide (“LPS”, 1 μg/ml), and T cells were treated with phorbol myristate acetate (“PMA”, 10 ng/ml) plus ionomycin (1 μg/ml) (Sigma). For interleukin-2 (“IL-2”) pretreatment, T cells were cultured for 3-5 days in the presence of IL-2 (50 U/ml) (Genzyme) before exposure to Apo-2 ligand. Apoptosis was determined using FACS analysis essentially as described above in Example 4. However, B cells were gated by anti-CD19/CD20 antibodies (Jackson Immunoresearch), and T cells were gated by anti-CD4/CD8 antibodies (Jackson lmmunoresearch). The results are shown in Table 2 below, representing means ±SE of independent experiments [B lymphocytes—9 experiments; T lymphocytes—8 experiments; T lymphocytes plus IL-2-5 experiments], in which 50,000 cells were analyzed per data point. Statistical analysis was performed using the student t-test. In Table 2, a=p<0.05 and b=p<0.02 relative respective control.
# [8] = tested on: HeLa; test: Cell viability by crystal violet staining
# Experimental: The following human tumor cell lines were assayed: A549 (lung carcinoma, ATCC CCL 185); HCT116 (colon carcinoma, ATCC CCL 247); SW480 (colon adenocarcinoma, ATCC CCL 228); MDA231 (breast adenocarcinoma, ATCC HTB 26); HeLa (cervical carcinoma, ATCC CCL 22); ME-180 (cervical carcinoma, ATCC HTB 33); T24 (bladder carcinoma. ATCC HTB 4); SK-N-AS (neuroblastoma, White et al., Proc. Natl. Acad. Sci., 92:5520-5524 (1995)). The cells were plated at 2.5×10^5 cells/ml in 96 well plates and incubated overnight. The cells were cultured in the presence of 2-fold dilutions of Apo-2 ligand (ranging from 100 ng/ml to 0.01 ng/ml). In some of the cultures, a chemotherapeuticagent was also added for 24 hours-cyclohexamide (“CHX”) (50 μg/ml; Sigma Chemicals), Doxorubicin (10-100 μg/ml; Pharmacia), or 5-FU (6 mg/ml; Roche).
# After 24 hours of incubation, the cells were stained with 0.5% crystal-violetin 20% methanol. Cell viability was determined by eluting the dye from the stained cells with 0.1M sodium citrate (0.1M citric acid in 50% methanol), and measuring absorbance at 540 nm.
molecule,measurement,setting,value
"Apo-2L: purified soluble His10-tagged human Apo-2 ligand, residues 114-281, from baculovirus-infected Sf9 cells (Example 3); used in Examples 4-14 (protein) MGHHHHHHHHHHSSGHIDDDDKHMVRERGPQRVAAHITGTRGRSNTLSSPNSKNEKALGRKINSWESSRSGHSFLSNLHLRNGELVIHEKGFYYIYSQTYFRFQEEIKENTKNDKQMVQYIYKYTSYPDPILLMKSARNSCWSKDAEYGLYSIYQGGIFELKENDRIFVSVTNEHLIDMDHEASFFGAFLVG",% apoptotic cells,[1],12.2%
same,% apoptotic cells,[2],74.6%
same,% apoptotic cells,[3],18.6%
same,% apoptotic cells,[4],47.3%
same,% apoptotic cells,[5],80.7%
same,% apoptotic cells,[6],62.3%
same,% apoptolic cells,"[7]; IL-2 pretreatment (50 U/ml, 3-5 days), control 13.7 ± 1.2, b=p<0.02",34.5 ± 4.8^b %
same,% apoptolic cells,"[7]; PMA/ionomycin, control 40.3 ± 4.4, a=p<0.05",54.2 ± 3.3^a %
same,% apoptolic cells,"[7]; treatment none, control 6.3 ± 0.6",8.2 ± 0.8%
same,Apo-2L SENSITIVITY,"[8]; HeLa cervical carcinoma, p53 mut, 24 h",+ (>35% death after 24 h with 100 ng/ml Apo-2)
same,Apo-2L sensitivity ENHANCED BY CHX,"[8]; HeLa, cyclohexamide 50 μg/ml, 24 hours",yes
